From the nanobody polyreactivity screen of Harvey et al. (2022)

Test: yeast display, Sf9 membrane polyspecificity reagent, FACS + sequencing; frameworks hold sequencing errors
Method in brief: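 Galactose-induced (36–48 hours) yeast carrying a synthetic nanobody display library were exposed to 10% biotinylated, detergent-solubilized Sf9 membrane reagent at 4 °C for 1 hour. FACS followed streptavidin microbead enrichment, using low and high (top ~1%) gates for expression (anti-HA) and reagent binding (streptavidin). Colony PCR, MiSeq 2 × 250 sequencing and CDR-length filtering followed. Labels for polyreactivity reflect the gate of origin.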

Row | Sequence | polyreactivity (PSR sort gate)
1 | QVQRVESGGGLVQAGGCLRLSSAASGFIFRYNDMGWYRQAPGKERQLVATITGSGTSTYYADSVKGRFTISRDNAKTTVYLQMNSLKPEDTAVYYCAAVTSYWYWYVGYDYWGQGTQVTVSS | high polyreactivity
2 | QVQRVESGGGLVQAGGILRLSCAASGSTFKVNVIGWYRHAPRTERDLVSAINQSGGGKYYADSVKGRFTISRDNAKNTVYLQMNSLKPEDTAVYYCAAKIFVLRYVLSQEQRRYNYWGQGTQLTVSS | low polyreactivity
3 | QVQRVESGGGLVQAGGRLRLSSSASGSIFPTNTMGLSRQSPGKERELVAAITGSGGSRYYADSVKGRFTISRDNAKNTVYLQMNSLKPEDTAVYYCAARYRVDGVKYGYWGQGTQVTVSS | high polyreactivity
4 | QVQRVESGGGLVQAGGSLPLSCAATGRTVRQNAMGWYGQAPGKVSELVAAISSSGTNTHYAVSVKGRFTISRDNANNTVYIVMNRLKPEDTAVYYCAADGWGARRKQYHDNGFWGTGTQVTVSS | high polyreactivity
5 | QVQRVESGGGLVQAGGSLRISCAASGLIFYRYAMGRYRQAPGKERELVAAISKRGTSTYYADSVKGRFTISRDNAKNTVYLQMNSLKPEDTAVYYCAADVQEEYDYWGLGTQVTVSS | high polyreactivity
6 | QVQRVESGGGLVQAGGSLRLRCAASGFIFWLYAMGWYRQAPAKERELVAAISNGGSTNYADSVKGRFTISRDNAKNTVYLQMNSLKPEDTAVYYCAAKFPRRYYWYDYWGQGTQVTVSS | high polyreactivity
7 | QVQRVESGGGLVQAGGSLRLSCAACGLTFRQYAMVWYRQAPGKERELVAAIRSRGGSTYYADSVKGRFTISRDNAKNTVYFQMNSLKPEDTAVYYCAAGGRGWWLYRYNFFSEMDYWGQGTQVTVSS | high polyreactivity
8 | QVQRVESGGGLVQAGGSLRLSCAASGFIFEGNAMGWYRQAPGKERELVAAISWSGGRTFYADSVKGRFTISRDHAKNTVYLQMNSLKPEDTAVYYCAAQGRRYGYGDFYYWGQGTQVTVSS | high polyreactivity
9 | QVQRVESGGGLVQAGGSLRLSCAASGFIFETYAMGWYRQAPGKERELVAAISWRTGRTYYADSVKGRFTISRDNAKNTVYLQMNSLKPEDTAVYYCNADYGGTSTLKDFDYWGQGTQVTVSS | low polyreactivity
10 | QVQRVESGGGLVQAGGSLRLSCAASGFIFGRYAMGWYRQAPGKERELVAASTWGGDSTYYADSVKGRFTISRDNAKNTVYLQMNSLKPEDTAVYYCAAYPQRRFYWQYRYDYWGQGTQVTVSS | high polyreactivity
11 | QVQRVESGGGLVQAGGSLRLSCAASGFIFIRNAMGWYRQAPGKERELVAAISSGGRTYYADSVKGRFTISRDNAKNTVYLQMNSLQPEDTAVYYCATRPHRPRGHSVGQYDYWGQGTQVTVSS | high polyreactivity
12 | QVQRVESGGGLVQAGGSLRLSCAASGFTFDRYAMGWYRQAPGKERELVAAISRSGGSTHYADSVKGRFTISRDNAKNTVYLQMNSLKPEDTAVYYCAKVYAPITALYFPTDRGDYCGQGTQVTVSS | high polyreactivity
13 | QVQRVESGGGLVQAGGSLRLSCAASGFTFRAYTMGWYRQAPGKDRELVAAITYSGGRRYYADSVKGRFTISRDNAKTTVYLQMNSLNPEDTAVYYCAKRGWALSEYYYWGQGTQVTVSS | high polyreactivity
14 | QVQRVESGGGLVQAGGSLRLSCAASGFTFVEYAMGWYRQAPGKERELVAAISVSGGSTYYADSVKGRFTISRDNAKNTVYLQMNSLKPEDTAVYYCNATGYQVGSITIYDYWGQGSQVTVSS | low polyreactivity
15 | QVQRVESGGGLVQAGGSLRLSCAASGFTLDYYTMGWYRQAPGKERELVAAISWIGTSTYYADSVKGRFTISRDNAKNTVYIQMNSLKPEDTAVYYCAAVGASVDDYYWGQGSQVTVSS | high polyreactivity
16 | QVQRVESGGGLVQAGGSLRLSCAASGITFDRYAMGWYRQAPGKETELVAAISSGGRTNYADSVKGRFTISRDNAKNTVYLQMNSLKPEDTEVYYCSKRRARSGQDYDYWGQGTQVTVSS | low polyreactivity
17 | QVQRVESGGGLVQAGGSLRLSCAASGITFGIYVMGWYRQAPGKETELVATISRSDDNTYYADSVKGRFTISRDNAKNTVYLQMNSLKPEDTAVYYCAADGVISAWYSSRDDYWGQGTQVTVSS | low polyreactivity
18 | QVQRVESGGGLVQAGGSLRLSCAASGITFWPYAMGWYRQAPGKERELVAAIRASVGRTYYADSVKGRFTISRDNAKNTVYLQMNSLKPEDTAVYYCNAYGRYGKFRVEYDYWGQGTQVTVSS | low polyreactivity
19 | QVQRVESGGGLVQAGGSLRLSCAASGLIFRKYAMGWYRQEPGKERELVAAISLRGVSTYYADSVKGRFTISRDNAKNTVYLQMNRLKPEDTAVYYCAADVYYPLGYGLDYWGQGYQVTVSS | low polyreactivity
20 | QVQRVESGGGLVQAGGSLRLSCAASGLILVPNTMGWYRQAPGKVRELVAAISYSGGGTYYADAVKGRFTISRDNAKNTVYLQMNSLKPEETAVYDCAAYVKRESAPYGYWGQGTQVTVSS | low polyreactivity
21 | QVQRVESGGGLVQAGGSLRLSCAASGNTFKYNTMGWYRQAPGTERELVAAISSGGNTKYADSVKGRFTISRDNGKNTDYFQMNSLKPEDTAVNYCATTFPRKGRFRYDYWGQGTQVTVSS | high polyreactivity
22 | QVQRVESGGGLVQAGGSLRLSCAASGNTFYGYTMGWYRQAPGKERELVAAISGRGGSTTYADSVKGRFTISRDNEKNTVYCQMNSLKPEDTAVYDCAANSVYIRTRFYYWGQGTQETVSS | high polyreactivity

Row | Sequence | polyreactivity (PSR sort gate)
23 | QVQRVESGGGLVQAGGSLRLSCAASGRIFGLNAMGWYRQAPGKERELVAAIDRSGASTYYADSVKGRFTISRDNAKNTVYLQMNSLKPEDSAVYYCAARIRTSDRRYYLGQGTQVTVSS | high polyreactivity
24 | QVQRVESGGGLVQAGGSLRLSCAASGRIFRYYAMGWYRQAPGKERELVAAISRSSGSTYYADSVKGRFTISRDNAKNTVYLQMNSLKPEDTAVYYCATAFYSYGRYPQSYYWGQGTQVTVSS | high polyreactivity
25 | QVQRVESGGGLVQAGGSLRLSCAASGRIFVAYVMGWYRQAPGKERELVAAITRSGGRTYYADSVKGRFTISRDNAKNTVYLQMNSLKPEDTAVYYCATDSGWSTYDYWGQGTQVSVSS | high polyreactivity
26 | QVQRVESGGGLVQAGGSLRLSCAASGRTFPPYAMGWYRQAPGKERELVASIRRGGSTHYADSVKGRFTISRDNAKNTVYLQMNSLKPEDTAVYYCNADVIFGYTHYNYWGQGTQVTVSS | high polyreactivity
27 | QVQRVESGGGLVQAGGSLRLSCAASGRTFVFYDMGWYRQAPGKERELVAAITSSGGRTYYADSVKGRFTISRDNAKNTVYLQMYRVKPEDTAVYYCAAPYYPYKYDSWGQGTQVTVSS | low polyreactivity
28 | QVQRVESGGGLVQAGGSLRLSCAASGSIFGVYTRGWYRQAPGKESELVAAITSAGSTYADSVKGRFTISRDNAKNTVYLQMNSLKPEDTAVYYCAAGFHKRVTPEILYDYWGQGTQVTVSS | low polyreactivity
29 | QVQRVESGGGLVQAGGSLRLSCAASGSIFRFYAMGWYRQARGKERELVAAITSGGSTNYADSVKGRFTISRDNAKNTVFLQMKSLKPEDTAVYYFNAGLFYKPQYGYWGQGTQVTVSS | high polyreactivity
30 | QVQRVESGGGLVQAGGSLRLSCAASGSIFSYYARGLYRQAPGNESELVAVINSGSTNYAASVKGRFTISRDNAKNTVYIHMNSLKPEDTAVYYCAADSLLYLLEQYTTAPYDYWAQGTQVTVSS | low polyreactivity
31 | QVQRVESGGGLVQAGGSLRLSCAASGSIVQQYAMGWYRQAPGKERELVAAISYSGGTTYYADSVKGRFTISRDNAKTTVYLQMNSLKPEDTAVYYCAAYYPSGSYDYYWGQGTQVTVSS | low polyreactivity
32 | QVQRVESGGGLVQAGGSLRLSCAASGSTFSIYAMGLYRQEPGKERELVAAISFSDDSTYYADSVKGRFTISRDNAKNTVYLQMNSLNPEDTEVYYCAAEGYWGEPFDYDGALEYWGQGTQVTVSS | high polyreactivity
33 | QVQRVESGGGLVQAGGSLRLSCADSGGTFGSYAKGCSSQAPGQDRELVDAIDYSGADTYYADSVKGRFTISRDNAKNTVYLQMNSLKREDTAVFSCNADPLPYDGFYDYDYWGQGTQVTVSS | low polyreactivity
34 | QVQRVESGGGLVQAGGSLRLSSAGSGSIFNIYTMGWYRQAPGKERELVAAISYGGGSTYADSVKGRLTISRDNAKNTVYLQMNSLKPEDTAVYYCNAKRTYHWRWYQYDYWGQGTQVTVSS | high polyreactivity
35 | QVQRVESGGGLVQAGGSLRLSSASSGFTFRSYAMGWYRQEPGKERELVAVIASSGGSTYYADSVKGRFTFSRDNAKNTVYLQMNSLKPEDTAVYYCNRRPATRAYLYDYWGQGTQVTVSW | high polyreactivity
36 | QVQRVESGGGLVQAGGSLRLTSAASGSTFGTNAMGWYRQAPGTERELVATISKSGGSTYYADSVKGRFTISRDNAKNTVYLQMNSLKPEANAVYYCARRYRDYGRYGYWGQGTEVTVSS | high polyreactivity
37 | QVQRVESGGGLVQAGGTLRLSCAASGRIFWYNAMGWSRQAPGKERELVAVISTRGGRTYYADSVKGRFTISRDNAKNTVYLQMNSLKPEDTAVYYCAAEFLNKAVGGVTSIYDSWGQGTQVTVSS | low polyreactivity
38 | QVQRVESGGGLVQARASLRLSCAASGSIFPHYAMGWYRQAPGKERDLVATIRSRSGSTYYADSVKGRFTISRDNAKNTVYLQMNSLKPEDTAVYYCAARYYKERYWGQGTQVTVSS | low polyreactivity
39 | QVQRVESGGGLVQEGRSLRLSCAASGFIFSVYAMGWYRQAQGKERELVAAMTWNGGRTYYADSVKGRFRISRDHAKNTVYLQMNSVKPEDTAVYYCAADSRGALNSVYRYGSIVEGDYWGQGTQVTVSS | low polyreactivity
40 | QVQRVESGGRLVQAGGSLRLSCAACGSTFPGNAMGWYRQAPGKERELVAAISSSGGSTDYADSVKGRFTCSRDNAKNTVYLQLNRLKPEDTAVYSCATKYRFCTYRDIAYPYDYWGQGPQVTVSS | low polyreactivity
41 | QVQRVESGGRLVQAGGSLRLSCAASGSTFPSYAMGWSRQAPGKERELVAAISWSGGTTYYADSVKGRFTISRDNAKNTVYLQMNSLKPEDTAVYYCAAGGRRQAYGRRDYWGQGNQVTVSS | high polyreactivity
42 | QVQRVESGVGIVQAGGSLRLSSAASGFIFSRYAMGWYRQAPGNERQLVAAIRFSGSITYYADSVKGRFTISRDNAKNTVYLQMNSLKPEDTAVYYCAAPLTFFKRVYYWGQGTQLTVSS | high polyreactivity
43 | QVQRVETGGGLVQAGGSLRLSCAASGRTIRVYAMGWYRQPPGKETELVPAISGSGGSTYYADSVKGRFTISRDNAKNTVYLQMNSLKPEDTAVYFCYAASWTFQTTPKYDYWGQGTLVTVSS | high polyreactivity
